The source of these data is patent publication US11499162B2, “Plants having increased tolerance to herbicides” (BASF SE, priority 2016, dated 2022).

Positions count from the first letter of the chain named. Names and notes keep the numbering of the source.

B1: M155E: mutated TriA variant of SEQ ID NO: 2 (protein)
chain: MQTLSIQHGTLVTMDQYRRVLGDSWVHVQDGRIVALGVHAESVPPPADRVIDARGKVVLPGFINAHTHVNQILLRGGPSHGRQLYDWLFNVLYPGQKAMRPEDVAVAVRLYCAEAVRSGITTINDNADSAIYPGNIEAAMAVYGEVGVRVVYAREFFDRMDGRIQGYVDALKARSPQVELCSIMEETAVAKDRITALSDQYHGTAGGRISVWPAPAITPAVTVEGMRWAQAFARDRAVMWTLHMAESDHDERLHWMSPAEYMECYGLLDERLQVAHCVYFDRKDVRLLHRHNVKVASQVVSNAYLGSGVAPVPEMVERGMAVGIGTDDGNCNDSVNMIGDMKFMAHIHRAVHRDADVLTPEKILEMATIDGARSLGMDHEIGSIETGKRADLILLDLRHPQTTPHHHLAATIVFQAYGNEVDTVLIDGNVVMENRRLSFLPPERELAFLEEAQSRATAILQRANMVANPAWRSL
modifications: Pseudomonas
B2: P219GH249N: mutated TriA variant of SEQ ID NO: 2 (protein)
chain: B1 chain with E155M, P219G, H249N
modifications: Pseudomonas
B3: I217A: mutated TriA variant of SEQ ID NO: 2 (protein)
chain: B1 chain with E155M, I217A
modifications: Pseudomonas
B4: A220T: mutated TriA variant of SEQ ID NO: 2 (protein)
chain: B1 chain with E155M, A220T
modifications: Pseudomonas
B5: A220G: mutated TriA variant of SEQ ID NO: 2 (protein)
chain: B1 chain with E155M, A220G
modifications: Pseudomonas
B6: A216G: mutated TriA variant of SEQ ID NO: 2 (protein)
chain: B1 chain with E155M, A216G
modifications: Pseudomonas
B7: L841L88AY167I: mutated TriA variant of SEQ ID NO: 2 (protein)
chain: B1 chain with L84I, L88A, E155M, Y167I
modifications: Pseudomonas
B8: F157M: mutated TriA variant of SEQ ID NO: 2 (protein)
chain: B1 chain with E155M, F157M
modifications: Pseudomonas
B9: F157A: mutated TriA variant of SEQ ID NO: 2 (protein)
chain: B1 chain with E155M, F157A
modifications: Pseudomonas
B10: A216S: mutated TriA variant of SEQ ID NO: 2 (protein)
chain: B1 chain with E155M, A216S
modifications: Pseudomonas
B11: I217S: mutated TriA variant of SEQ ID NO: 2 (protein)
chain: B1 chain with E155M, I217S
modifications: Pseudomonas
B12: I217VP219GH249N: mutated TriA variant of SEQ ID NO: 2 (protein)
chain: B1 chain with E155M, I217V, P219G, H249N
modifications: Pseudomonas
B13: L88AY167I: mutated TriA variant of SEQ ID NO: 2 (protein)
chain: B1 chain with L88A, E155M, Y167I
modifications: Pseudomonas
B14: L84VL88AY167I: mutated TriA variant of SEQ ID NO: 2 (protein)
chain: B1 chain with L84V, L88A, E155M, Y167I
modifications: Pseudomonas
B15: I217T: mutated TriA variant of SEQ ID NO: 2 (protein)
chain: B1 chain with E155M, I217T
modifications: Pseudomonas
B16: F157AA220G: mutated TriA variant of SEQ ID NO: 2 (protein)
chain: B1 chain with E155M, F157A, A220G
modifications: Pseudomonas
B17: N70T: mutated TriA variant of SEQ ID NO: 2 (protein)
chain: B1 chain with N70T, E155M
modifications: Pseudomonas
B18: A220S: mutated TriA variant of SEQ ID NO: 2 (protein)
chain: B1 chain with E155M, A220S
modifications: Pseudomonas
B19: N70C: mutated TriA variant of SEQ ID NO: 2 (protein)
chain: B1 chain with N70C, E155M
modifications: Pseudomonas

The data set is classed as biochemical. The note with it: pH 7.2. The essentials: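 E. coli resting cells expressing His-tagged TriA incubated with azines, melamine or atrazine. Enzyme in 25 mM sodium phosphate pH 7.2 at 30 °C, substrate 1–10 nM. Loss of parent and formation of OH-metabolite followed by UPLC-HR-MS; % degradation relative to empty-vector cells.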
Regarding B1, the “Degradation in % of 6-cyclopentyl-N4-(2,3,4,5,6-pentafluorophenyl)-1,3,5-triazine-2,4-diamine” value came out at 0% and the “Degradation in % of Melamine” value stood at 0%.

Regarding B2, the “Degradation in % of 6-cyclopentyl-N4-(2,3,4,5,6-pentafluorophenyl)-1,3,5-triazine-2,4-diamine” value is reported as 0% and the “Degradation in % of Melamine” value came to 2%.

Regarding B3, the “Degradation in % of 6-cyclopentyl-N4-(2,3,4,5,6-pentafluorophenyl)-1,3,5-triazine-2,4-diamine” value is reported as 4% and the “Degradation in % of Melamine” value came out at 100%.

For the molecule B4, the “Degradation in % of 6-cyclopentyl-N4-(2,3,4,5,6-pentafluorophenyl)-1,3,5-triazine-2,4-diamine” value amounted to 1% and the “Degradation in % of Melamine” value stood at 6%.

On to B5, for which the “Degradation in % of 6-cyclopentyl-N4-(2,3,4,5,6-pentafluorophenyl)-1,3,5-triazine-2,4-diamine” value is recorded as 0% and the “Degradation in % of Melamine” value worked out at 0%.

Turning to B6, the “Degradation in % of 6-cyclopentyl-N4-(2,3,4,5,6-pentafluorophenyl)-1,3,5-triazine-2,4-diamine” value turned out to be 0% and the “Degradation in % of Melamine” value is recorded as 64%.

In the case of B7, the “Degradation in % of 6-cyclopentyl-N4-(2,3,4,5,6-pentafluorophenyl)-1,3,5-triazine-2,4-diamine” value turned out to be 4% and the “Degradation in % of Melamine” value is 9%.

Take B8: the “Degradation in % of 6-cyclopentyl-N4-(2,3,4,5,6-pentafluorophenyl)-1,3,5-triazine-2,4-diamine” value is on record as 0% and the “Degradation in % of Melamine” value came to 17%.

For B9, the “Degradation in % of 6-cyclopentyl-N4-(2,3,4,5,6-pentafluorophenyl)-1,3,5-triazine-2,4-diamine” value is 0% and the “Degradation in % of Melamine” value is 19%.

Turning to B10, the “Degradation in % of 6-cyclopentyl-N4-(2,3,4,5,6-pentafluorophenyl)-1,3,5-triazine-2,4-diamine” value was 1% and the “Degradation in % of Melamine” value worked out at 45%.

Take B11: the “Degradation in % of 6-cyclopentyl-N4-(2,3,4,5,6-pentafluorophenyl)-1,3,5-triazine-2,4-diamine” value was found to be 3% and the “Degradation in % of Melamine” value was found to be 100%.

B12: the “Degradation in % of 6-cyclopentyl-N4-(2,3,4,5,6-pentafluorophenyl)-1,3,5-triazine-2,4-diamine” value is recorded as 0% and the “Degradation in % of Melamine” value is 8%.

Turning to B13, the “Degradation in % of 6-cyclopentyl-N4-(2,3,4,5,6-pentafluorophenyl)-1,3,5-triazine-2,4-diamine” value stood at 0% and the “Degradation in % of Melamine” value was 2%.

Turning to B14, the “Degradation in % of 6-cyclopentyl-N4-(2,3,4,5,6-pentafluorophenyl)-1,3,5-triazine-2,4-diamine” value is listed as 3% and the “Degradation in % of Melamine” value is 7%.

B15: the “Degradation in % of 6-cyclopentyl-N4-(2,3,4,5,6-pentafluorophenyl)-1,3,5-triazine-2,4-diamine” value stood at 3% and the “Degradation in % of Melamine” value was 100%.

On to B16, for which the “Degradation in % of 6-cyclopentyl-N4-(2,3,4,5,6-pentafluorophenyl)-1,3,5-triazine-2,4-diamine” value is reported as 0% and the “Degradation in % of Melamine” value is 0%.

Turning to B17, the “Degradation in % of 6-cyclopentyl-N4-(2,3,4,5,6-pentafluorophenyl)-1,3,5-triazine-2,4-diamine” value amounted to 0% and the “Degradation in % of Melamine” value amounted to 0%.

Turning to B18, the “Degradation in % of 6-cyclopentyl-N4-(2,3,4,5,6-pentafluorophenyl)-1,3,5-triazine-2,4-diamine” value was determined as 3% and the “Degradation in % of Melamine” value stood at 0%.

Consider B19, for which the “Degradation in % of 6-cyclopentyl-N4-(2,3,4,5,6-pentafluorophenyl)-1,3,5-triazine-2,4-diamine” value is given as 0% and the “Degradation in % of Melamine” value worked out at 0%.
